Data published in article PMC6336276.

Columns and labels:
[1] = target: Str. enolase DB (Streptococcus pyogenes) (UniProt P69949); test: AUC; sedimentation velocity, 20°C, 37000 rpm, TME-SO4; DPgn alone, Str. enolase alone and the mixture at the same concentrations; shift of the s value of the DPgn peak (Sedfit c(s), DCDT+)
[2] = target: Str. enolase 137/363–4 (Streptococcus pyogenes) (UniProt P69949); test: AUC; sedimentation velocity, TME-SO4, 20°C; five concentrations of 137/363–4 (1-11.7 μM) and DPgn (0.43-4.2 μM); global fit to an equilibrium constant in Sedphat
[3] = target: Str. enolase 137/363–4 (Streptococcus pyogenes) (UniProt P69949); test: SPR; localized SPR (Nicoya OpenSPR); hexa-his-tagged Str. enolase 137/363–4 immobilised on a Ni-NTA chip, DPgn injected at successive concentrations in duplicate, ovalbumin as control; Pi, imidazole, NaCl buffer; close to 27 °C; one to two model (TraceDrawer 1.5)
[4] = target: Str. enolase DB (Streptococcus pyogenes) (UniProt P69949); test: dual polarization interferometry (DPI); Str. enolase adsorbed first on an unmodified silicon oxynitride chip, then DPgn injected; 3 μM each protein, 8 min injections, 25 μL/min/channel, 20°C; proteins in TME-SO4, wash buffer 10 mM phosphate
[5] = target: Str. enolase 137/363–2 K252A K255A (Streptococcus pyogenes) (UniProt P69949); test: as above
[6] = target: Str. enolase F137L/E363G (Streptococcus pyogenes) (UniProt P69949); test: AUC; sedimentation velocity of Str. enolase alone in different buffers (KPi with or without Mg(II), NaCl, imidazole; TME-SO4); octamer to monomers, dimers, tetramers
[7] = target: Str. enolase DB no hexa-his tag (Streptococcus pyogenes) (UniProt P69949); test: AUC; sedimentation velocity of Str. enolase alone, TME-SO4, 20°C, 37000 rpm; c(s) distribution, percent octamer and monomer; octamer to monomers and other species
[8] = system: P69949; test: as above
[9] = target: Str. enolase DB (Streptococcus pyogenes) (UniProt P69949); test: as above

canine plasminogen (natural protein) gave a Ka [1] of under 10000 M⁻¹, a Ka [2] of 340000 M⁻¹ and a Kd [2] of 3000 nM. It also gave a KD1 (site 1 of a one to two model) [3] of 1.34 µM, a KD2 (site 2 of a one to two model) [3] of 2.66 µM and a ka1 (site 1 of a one to two model) [3] of 1300. The ka2 (site 2 of a one to two model) [3] was 9600, the kd1 (site 1 of a one to two model) [3] was 0.0017 and the kd2 (site 2 of a one to two model) [3] was 0.026. It also gave a stoichiometry N (DPgn per enolase monomer) [3] of 1.6, a mass of enolase + DPgn layer [4] of 2.8 ng/mm^2 and a mass of enolase + DPgn layer [5] of 5.3 ng/mm^2.

In the case of “Str. enolase F137L/E363G (from UniProt P69949 1-435) (enzyme)”, the stoichiometry N [6] is reported as 8.

Substance “Str. enolase DB no hexa-his tag (from UniProt P69949 1-435) (enzyme)” has a % octamer (from AUC) [7] of 81.6%.

Str. enolase DB no hexa-his tag showed a % monomer (from AUC) [8] of 1.3%.

“Str. enolase DB (from UniProt P69949 1-435) (enzyme)” gave a % octamer (from AUC) [9] of 88% and a stoichiometry N [9] of 8.

Str. enolase DB was tested, and the “% monomer (from AUC)” value [8] was 0.4 (nil?).

Str. enolase 137/363–2 K252A K255A was tested, and the % monomer (from AUC) [8] was 70.4%.
